Data taken from US20260158064A1 (NANJING PROBIO BIOTECH, published 2026).
Positions count from the first letter of the chain named.

B1: single domain antibody AHP15776 (Fc fusion)
chain: QVQLVESGGGLVQPGGSLTLSCAASQSISSIYLLGWYRQAPGKERESVARITTSGTTTYIADSVKGRFTLSRDNAKNTMYLQMNSLKPEDTAVYYCNVPFLVATARGNAYWGQGTQVTVSS
notes: VHH expressed from pcDNA3.4-Fc (HuIgG1); not shown: human IgG1 Fc of the pcDNA3.4-Fc (HuIgG1) expression vector
B2: single domain antibody AHP15547 (Fc fusion)
chain: AVQLVDSGGGSVQPGESLTLSCTGSARFLSNYGMGWYRQFPGKMREMVAYETNRGNKRYAESVKGRFRIARDAAKTTVYLEMNSLKPEDTAVYYCNAESSGWGRRNYWGQGTQVTVSS
notes: as for B1
B3: single domain antibody AHF21719 (Fc fusion)
chain: EVQLVESGGGLVQPGGSLRLSCAASGYISRFYAMGWYRQAPGKQRELVARISSGGWTYYADSVKGRFTISIDNSKNTLYLQMNSLRAEDTAVYYCNARNLWGQGTLVTVSS
notes: Fc format is inferred; not shown: human IgG1 Fc; vector and li
B4: single domain antibody AHP15662-VHH4-Variant3 (Fc fusion)
chain: B3 chain with G26H, M34V
notes: as for B3
B5: single domain antibody AHP15662-VHH4-Variant1 (Fc fusion)
chain: B3 chain with G26Y, M34V
notes: as for B3
B6: single domain antibody AHF21711 (Fc fusion)
chain: B3 chain with G26H, Y27S, M34I, G54M, W56R
notes: as for B3
B7: single domain antibody AHF21720 (Fc fusion)
chain: B3 chain with G54L
notes: as for B3
B8: humanized single domain antibody AHP15662-VHH4 (Fc fusion)
chain: B3 chain with Y27S, M34V, W56S
notes: Humanized VHH expressed from pcDNA3.4-Fc (Human IgG1); not shown: human IgG1 Fc of the pcDNA3.4-Fc (Human IgG1) expression vector
B9: single domain antibody AHF21721 (Fc fusion)
chain: B3 chain with Y27F, G54M
notes: as for B3
B10: single domain antibody AHP15662-VHH4-Variant2 (Fc fusion)
chain: B3 chain with G26Y, Y27F, M34V
notes: as for B3
B11: single domain antibody AHP15485-VHH4-Variant2 (Fc fusion)
chain: EVQLVESGGGLVQPGGSLRLSCAASGRSFSSFQMGWFRQAPGKEREFVAASGWSGGPTYYWDSVIGRFTISTDNSKNTLYLQMNSLRAEDTAVYYCYEDRVLSGRPVRYWGQGTLVTVSS
notes: as for B3
B12: single domain antibody AHF22018 (Fc fusion)
chain: B11 chain with V64W, I65K, P106W
notes: not shown: human IgG1 Fc; vector and li
B13: humanized single domain antibody AHP15485-VHH4 (Fc fusion)
chain: B11 chain with S31N, W61A, I65K
notes: as for B8
B14: single domain antibody AHP15485-VHH4-Variant1 (Fc fusion)
chain: B11 chain with S31N
notes: as for B3
B15: single domain antibody AHF22013 (Fc fusion)
chain: B11 chain with P106H
notes: as for B3
B16: single domain antibody AHP15773 (Fc fusion)
chain: EVQLVESGGGLVQPGGSLRLSCLASGSDFSDSAMGWYRQAPGKQREFVAAIGAGGITTYADSVKGRFTISRDSAKNIVYLQMSSLSPEDTAVYFCNFAPGWYPPGYQYWGQGTQVTVSS
notes: VHH expressed from pcDNA3.4-Fc (HuIgG1); also called AHP15773-VHH; not shown: human IgG1 Fc of the pcDNA3.4-Fc (HuIgG1) expression vector
B17: humanized single domain antibody AHP15773-VHH4 (Fc fusion)
chain: B16 chain with L23A, S73N, I77T, V78L, S83N, S86R, P87A, Q114L
notes: as for B8
B18: single domain antibody AHP15485 (Fc fusion)
chain: EVQLVESGGGLAQAGGSLSLSCTASGRSFSNFQMGWFRQAPGKEREFVAASGWSGGPTYYADSVKGRFTISTDDSKKTMYLQMNSLKPEDTAAYYCYEDRVLSGRPVRYWGRGTQVTVSS
notes: Alpaca VHH expressed from pcDNA3.4-Fc (HuIgG1) in HEK293-6E; also called AHP15485-VHH; not shown: human IgG1 Fc of the pcDNA3.4-Fc (HuIgG1) expression vector
B19: single domain antibody AHP15662 (Fc fusion)
chain: B3 chain with S17T, Y27S, M34V, W56S, D72N, L78V, S84N, R86K, A87P, L106Q
notes: VHH expressed from pcDNA3.4-Fc (HuIgG1); also called AHP15662-VHH; not shown: human IgG1 Fc of the pcDNA3.4-Fc (HuIgG1) expression vector

Biological target: T1, mouse ROR1 expressed on CHO cells (CHO-K1/Mouse ROR1 stable cells) (mouse, UniProt Q9Z139 30-937)
T1 construct: whole, on cells
T1 sequence (Q9Z139 30-937): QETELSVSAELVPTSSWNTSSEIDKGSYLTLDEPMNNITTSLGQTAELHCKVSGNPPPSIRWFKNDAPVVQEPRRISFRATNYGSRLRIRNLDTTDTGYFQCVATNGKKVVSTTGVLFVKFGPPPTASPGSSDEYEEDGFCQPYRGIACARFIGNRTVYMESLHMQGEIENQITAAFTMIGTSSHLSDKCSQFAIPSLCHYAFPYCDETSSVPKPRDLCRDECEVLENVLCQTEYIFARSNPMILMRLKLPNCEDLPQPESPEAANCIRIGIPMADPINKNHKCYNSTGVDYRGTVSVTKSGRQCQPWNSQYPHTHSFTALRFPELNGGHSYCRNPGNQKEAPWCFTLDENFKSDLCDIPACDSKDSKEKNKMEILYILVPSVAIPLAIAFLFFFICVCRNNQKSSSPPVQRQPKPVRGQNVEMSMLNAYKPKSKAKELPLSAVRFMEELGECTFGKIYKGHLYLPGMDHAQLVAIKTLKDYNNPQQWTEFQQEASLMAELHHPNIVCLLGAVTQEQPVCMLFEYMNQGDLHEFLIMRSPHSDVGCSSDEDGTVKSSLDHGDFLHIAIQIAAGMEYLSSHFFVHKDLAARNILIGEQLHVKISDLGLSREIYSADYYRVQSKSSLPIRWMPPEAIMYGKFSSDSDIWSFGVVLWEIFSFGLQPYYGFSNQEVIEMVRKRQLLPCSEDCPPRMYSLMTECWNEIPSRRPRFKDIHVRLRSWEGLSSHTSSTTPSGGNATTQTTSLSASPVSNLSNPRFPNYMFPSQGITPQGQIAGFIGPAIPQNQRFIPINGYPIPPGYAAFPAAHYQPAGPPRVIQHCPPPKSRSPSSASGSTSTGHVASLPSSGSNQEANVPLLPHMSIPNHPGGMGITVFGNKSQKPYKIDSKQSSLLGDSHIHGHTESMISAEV
Assay: flow cytometry, antibody at 10 ug/ml on CHO cells
Procedure: (§1) CHO cells expressing human and mouse ROR1 and parental cells as the negative control for detection were collected and washed 3 times with PBS. 2.5×10⁵ test cells and 100 μl of purified antibody at 10 μg/ml were added to a 96-well plate, and the plate was incubated at 4° C. for 1 hour. The cells were then washed 3 times with PBS, 100 μl of iFluor-labeled goat anti-human IgG, an Fcγ-specific fragment antibody, was added, and the plate was incubated at 4° C. for 45 minutes. Finally, the cells were washed 3 times with PBS, and the signals were read using FACS BD Calibur.

Row | Binder | binding result
1 | B1 | binds
2 | B2 | binds

Biological target: T2, human ROR1 Frizzled-His domain protein (amino acid sequence at positions 165-305, Acrobiosystems, RO1-H5222) (human, UniProt Q01973 165-305)
T2 construct: also called Human ROR1 Frizzled-His protein; not shown: His tag
T2 sequence (Q01973 165-305 limits assumed, form in doubt): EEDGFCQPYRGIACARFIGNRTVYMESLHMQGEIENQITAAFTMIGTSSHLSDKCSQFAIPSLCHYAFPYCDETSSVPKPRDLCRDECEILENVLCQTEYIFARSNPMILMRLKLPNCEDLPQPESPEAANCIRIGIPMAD
Assay: SPR Biacore T200, method as Example 6 (antibody Fc-captured, antigen as analyte)
Procedure: (§2) The affinity of purified antibodies for human ROR1-related proteins was determined separately using the surface plasmon resonance (SPR) biosensor Biacore T200 (GE Healthcare). The antibodies were immobilized on the sensor chip by the Fc capture method. Human ROR1-related proteins were used as analytes. Data for dissociation (kd) and association (ka) rate constants were obtained using the Biacore T200 evaluation software. The equilibrium dissociation constant (KD) was calculated from the ratio of kd to ka.
(§3) According to the mutation status of the improved clones in the precise saturation mutation library, the combinatorial mutations and the relevant primers for library construction for the second round were designed. The combinatorial mutation library construction was performed still using the prokaryotic soluble expression plasmid of the humanized single domain antibody as the template. The subsequent screening process was the same as that for the precise saturation mutation library. Finally, the top 5 or 7 clones ranked by the improvement fold in affinity were selected for recombinant verification. 5 clones with improved affinity (AHF22016, AHF22018, AHF22013, AHP15485-VHH4-Variant1, and AHP15485-VHH4-Variant2) were obtained from the humanized antibody AHP15485 through affinity maturation screening, and were subjected to eukaryotic expression and purification, as well as subsequent affinity detection at various concentrations. 7 clones (AHP15662-VHH4-Variant1, AHP15662-VHH4-Variant2, AHP15662-VHH4-Variant3, AHF21711, AHF21719, AHF21720, and AHF21721) were obtained from AHP15662-VHH4.

Row | Binder | Kd [nM] | koff [s⁻¹] | kon [M⁻¹ s⁻¹]
3 | B3 | 21.6 | 0.00169 | 78100
4 | B4 | 39.5 | 0.0062 | 157000
5 | B5 | 46.3 | 0.00701 | 151000
6 | B6 | 19.3 | 0.00174 | 90100
7 | B7 | 16.9 | 0.00124 | 73600
8 | B8 | 294 | 0.103 | 350000
9 | B9 | 15.6 | 0.00113 | 72500
10 | B10 | 75.3 | 0.0119 | 159000

Biological target: T3, human ROR1-His protein (fused with a His protein tag, Acrobiosystems, RO1-H522y) (human, UniProt Q01973 30-403)
T3 construct: also called recombinant human ROR1-His protein; not shown: His tag
T3 sequence (Q01973 30-403 limits assumed): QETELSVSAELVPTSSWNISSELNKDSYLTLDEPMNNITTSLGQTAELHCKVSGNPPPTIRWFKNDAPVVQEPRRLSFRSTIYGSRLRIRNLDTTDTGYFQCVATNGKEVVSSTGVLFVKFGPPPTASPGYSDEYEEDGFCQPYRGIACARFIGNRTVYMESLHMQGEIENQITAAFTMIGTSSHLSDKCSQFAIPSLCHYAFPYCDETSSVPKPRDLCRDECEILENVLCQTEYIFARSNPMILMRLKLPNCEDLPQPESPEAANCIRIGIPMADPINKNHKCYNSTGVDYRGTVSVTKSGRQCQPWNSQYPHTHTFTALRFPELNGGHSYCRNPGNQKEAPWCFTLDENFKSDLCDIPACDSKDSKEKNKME
Assay: as above
Procedure: as §2, §3

Row | Binder | Kd [nM] | koff [s⁻¹] | kon [M⁻¹ s⁻¹]
11 | B11 | 21.4 | 0.0018 | 84000
12 | B12 | 20.3 | 0.000884 | 43500
13 | B13 | 290 | 0.0547 | 189000
14 | B14 | 184 | 0.0153 | 83100
15 | B15 | 8.91 | 0.000374 | 42000

Biological target: human ROR1 Frizzled-His domain protein (amino acid sequence at positions 165-305, Acrobiosystems, RO1-H5222) (human) (UniProt Q01973)
Sequence (Q01973 165-305 limits assumed, form in doubt): as the sequence (Q01973 165-305 limits assumed, form in doubt) above
Assay: indirect ELISA, plate coated with human ROR1 Frizzled-His, HRP anti-human IgG Fc, OD450

Row | Binder | EC50 (read off the curve) [µg/mL]
16 | B16 | 0.07

Biological target: T4, human ROR1 expressed on CHO cells (CHO-K1/Human ROR1 stable cells) (human, UniProt Q01973 30-937)
T4 construct: whole, on cells; also called CHO-K1/ROR1/Luc (Nanjing Probio, Cat #RD00949)
T4 sequence (Q01973 30-937): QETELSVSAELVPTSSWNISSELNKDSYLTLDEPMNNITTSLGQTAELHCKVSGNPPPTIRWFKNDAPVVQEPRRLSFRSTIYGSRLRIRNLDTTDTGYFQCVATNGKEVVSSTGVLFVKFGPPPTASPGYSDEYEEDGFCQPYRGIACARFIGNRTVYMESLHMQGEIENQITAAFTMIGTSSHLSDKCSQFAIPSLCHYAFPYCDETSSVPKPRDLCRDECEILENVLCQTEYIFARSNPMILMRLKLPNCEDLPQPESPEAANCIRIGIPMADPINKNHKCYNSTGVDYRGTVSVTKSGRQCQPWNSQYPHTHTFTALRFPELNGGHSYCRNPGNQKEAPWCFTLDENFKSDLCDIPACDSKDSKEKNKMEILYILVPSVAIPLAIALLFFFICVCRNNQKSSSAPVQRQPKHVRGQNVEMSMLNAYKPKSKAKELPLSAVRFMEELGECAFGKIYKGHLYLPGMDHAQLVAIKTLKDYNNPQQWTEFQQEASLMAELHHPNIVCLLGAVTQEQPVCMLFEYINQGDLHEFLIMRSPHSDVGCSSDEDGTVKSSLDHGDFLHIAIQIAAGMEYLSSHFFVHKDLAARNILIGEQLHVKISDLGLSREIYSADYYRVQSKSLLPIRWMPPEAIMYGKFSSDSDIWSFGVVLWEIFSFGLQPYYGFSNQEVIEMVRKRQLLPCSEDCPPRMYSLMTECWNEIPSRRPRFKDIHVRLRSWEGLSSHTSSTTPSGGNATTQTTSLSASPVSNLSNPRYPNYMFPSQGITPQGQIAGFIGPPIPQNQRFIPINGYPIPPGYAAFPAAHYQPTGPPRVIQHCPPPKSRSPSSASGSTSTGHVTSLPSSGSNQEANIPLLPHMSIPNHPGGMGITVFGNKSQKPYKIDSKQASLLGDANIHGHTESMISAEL
Assay: flow cytometry, 10 ug/ml antibody on Human ROR1-CHO-K1 cells (curve 1), fluorescent secondary antibody
Procedure: as §1

Row | Binder | Geometric Mean : Alexa Fluor 647-H
17 | B16 | 33400
18 | B17 | 28700
19 | B18 | 61400
20 | B13 | 38500
21 | B8 | 55400
22 | B19 | 56400

Biological target: T2, human ROR1 Frizzled-His domain protein …
Assay: indirect ELISA, antigen coated at 1 ug/ml
Procedure: (§4) Indirect ELISA was used to assess the binding capability of the above purified antibodies to human ROR1-related recombinant proteins. ELISA plates (Nunc) were coated with 1 μg/ml of human ROR1-His protein, human ROR1 Frizzled-His domain protein, and human ROR1 Kringle-His domain protein in 100 μl/well of CBS overnight at 4° C. The plates were washed with PBS-T (0.05% Tween) and blocked with 300 μl/well of PBS containing 3% skim milk at 37° C. for 1 hour. Subsequently, the blocking solution was discarded, and 100 μl of purified antibody at 8 μg/ml (about 100 nM) was added to the first well and diluted according to a 3-fold gradient to obtain a total of 11 test concentration gradients. The plates were then incubated for 1 hour at room temperature. The plates were washed 3 times with PBST and incubated with 100 μl/well of horseradish peroxidase-conjugated mouse anti-human IgG Fc fragment (GenScript) for 0.5 hours at 37° C. The plates were washed five times with PBST, a TMB chromogenic solution (GenScript) was then added, and the plates were incubated for 15 minutes at room temperature in the dark. The reaction was stopped by adding 50 μl of 1 M HCl stop solution (Sigma). The plates were read at 450 nm using a microplate reader. FIGS. 1-3 show the results of the ELISA experiment on the binding of 8 positive recombinant antibody clones to ROR1-related antigen proteins, and the EC₅₀ for each antibody is as shown in Table 2 below: the antigen binding capacity of the antibodies tested was all equal to or higher than that of the positive reference antibody R11-scFv.

Row | Binder | EC50 [µg/mL]
23 | B1 | 0.023
24 | B19 | 0.0105
25 | B2 | 0.0165

Biological target: T3, human ROR1-His protein (fused with a …)
Assay: indirect ELISA, antigen coated at 1 ug/ml
Procedure: as §4

Row | Binder | EC50 [µg/mL]
26 | B16 | 0.0155
27 | B1 | 0.0109
28 | B18 | 0.0061
29 | B19 | 0.0105
30 | B2 | 0.0105

Biological target: T2, human ROR1 Frizzled-His domain protein …
Assay: SPR Biacore T200, antibody Fc-captured, antigen as analyte
Procedure: as §2

Row | Binder | Kd [nM] | koff [s⁻¹] | kon [M⁻¹ s⁻¹]
31 | B8 | 247 | 0.111 | 449000
32 | B19 | 550 | 0.19 | 345000

Biological target: T3, human ROR1-His protein (fused with a …)
Assay: as above
Procedure: as §2

Row | Binder | Kd [nM] | koff [s⁻¹] | kon [M⁻¹ s⁻¹]
33 | B16 | 757 | 0.117 | 155000
34 | B17 | 319 | 0.0587 | 184000
35 | B18 | 280 | 0.063 | 225000
36 | B13 | 320 | 0.0686 | 214000

Biological target: T1, mouse ROR1 expressed on CHO cells …
Assay: flow cytometry, 10 ug/ml antibody on Mouse ROR1-CHO-K1 cells (curve 2), fluorescent secondary antibody
Procedure: as §1

Row | Binder | Geometric Mean : Alexa Fluor 647-H
37 | B16 | 54900
38 | B17 | 48500
39 | B18 | 31400
40 | B13 | 8630
41 | B8 | 52800
42 | B19 | 75600
